{
  "source": "patent US20240173421A1",
  "key": {"[1]": {"biological_target": "CD16a (FcγRIIIa) on Jurkat NFAT reporter cells (UniProt P08637)", "sequence (P08637 17-254 limits assumed)": "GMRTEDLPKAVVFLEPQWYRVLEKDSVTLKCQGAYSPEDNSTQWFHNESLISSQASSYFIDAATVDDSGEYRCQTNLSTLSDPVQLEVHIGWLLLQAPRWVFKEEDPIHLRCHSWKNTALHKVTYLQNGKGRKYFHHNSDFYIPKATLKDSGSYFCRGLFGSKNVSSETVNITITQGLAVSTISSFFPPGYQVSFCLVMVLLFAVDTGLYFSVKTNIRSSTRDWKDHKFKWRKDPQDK", "assay": "cell-based or functional assay"}, "[2]": {"biological_target": "Human F158 FcγRIIIa (Example 8) (human) (UniProt P08637)", "assay": "BLI, receptor on SAX sensor"}, "[3]": {"biological_target": "Human FcγRI (Example 8) (human) (UniProt P12314)", "assay": "BLI, receptor on SAX sensor"}, "[4]": {"biological_target": "Human H131 FcγRIIa (Example 8) (human) (UniProt P12318)", "assay": "BLI, receptor on SAX sensor"}, "[5]": {"biological_target": "Human V158 FcγRIIIa (Example 8) (human) (UniProt P08637)", "assay": "BLI, receptor on SAX sensor"}, "[6]": {"biological_target": "Human F158 FcγRIIIa (Example 8) (human) (UniProt P08637)", "assay": "BLI; ratio to KD of the unconjugated antibody"}, "[7]": {"biological_target": "Human FcγRI (Example 8) (human) (UniProt P12314)", "assay": "BLI; ratio to KD of the unconjugated antibody"}, "[8]": {"biological_target": "Human V158 FcγRIIIa (Example 8) (human) (UniProt P08637)", "assay": "BLI; ratio to KD of the unconjugated antibody"}, "[9]": {"biological_target": "CD16a (FcγRIIIa) on Jurkat NFAT reporter cells (UniProt P08637)"}, "[10]": {"biological_target": "CD16a (FcγRIIIa) on Jurkat NFAT reporter cells (UniProt P08637)", "remark": "listed apart in the source"}},
  "note": "Read-outs that look alike come from different tables or passages of the source.",
  "data": [
    {"substance": "Anti-HER2 S239D A330L I332E (antibody)", "values": [
      {"measurement": "CD16a NFAT EC50", "setting": "[1]", "result": 0.7, "unit": "ng/mL"},
      {"measurement": "Kd", "setting": "[2]", "result": 95, "unit": "nM"},
      {"measurement": "koff", "setting": "[2]", "result": 0.049, "unit": "s⁻¹"},
      {"measurement": "kon", "setting": "[2]", "result": 520000, "unit": "M⁻¹ s⁻¹"},
      {"measurement": "Kd", "setting": "[3]", "result": 0.12, "unit": "nM"},
      {"measurement": "koff", "setting": "[3]", "result": "6.8e-05", "unit": "s⁻¹"},
      {"measurement": "kon", "setting": "[3]", "result": 590000, "unit": "M⁻¹ s⁻¹"},
      {"measurement": "Kd", "setting": "[4]", "result": 2100, "unit": "nM"},
      {"measurement": "koff", "setting": "[4]", "result": 0.38, "unit": "s⁻¹"},
      {"measurement": "kon", "setting": "[4]", "result": 190000, "unit": "M⁻¹ s⁻¹"},
      {"measurement": "Kd", "setting": "[5]", "result": 37, "unit": "nM"},
      {"measurement": "koff", "setting": "[5]", "result": 0.028, "unit": "s⁻¹"},
      {"measurement": "kon", "setting": "[5]", "result": 750000, "unit": "M⁻¹ s⁻¹"}
    ]},
    {"substance": "Anti-HER2 S239D A330L I332E-mcPEG12(10) (antibody)", "values": [
      {"measurement": "CD16a NFAT EC50", "setting": "[1]", "result": 83.5, "unit": "ng/mL"},
      {"measurement": "Kd", "setting": "[2]", "result": 3800, "unit": "nM"},
      {"measurement": "koff", "setting": "[2]", "result": 0.077, "unit": "s⁻¹"},
      {"measurement": "kon", "setting": "[2]", "result": 20000, "unit": "M⁻¹ s⁻¹"},
      {"measurement": "Kd", "setting": "[3]", "result": 1.2, "unit": "nM"},
      {"measurement": "koff", "setting": "[3]", "result": 0.00011, "unit": "s⁻¹"},
      {"measurement": "kon", "setting": "[3]", "result": 95000, "unit": "M⁻¹ s⁻¹"},
      {"measurement": "Kd", "setting": "[5]", "result": 2900, "unit": "nM"},
      {"measurement": "koff", "setting": "[5]", "result": 0.085, "unit": "s⁻¹"},
      {"measurement": "kon", "setting": "[5]", "result": 29000, "unit": "M⁻¹ s⁻¹"},
      {"measurement": "KD Fold change", "setting": "[6]", "result": 40, "unit": "fold"},
      {"measurement": "KD Fold change", "setting": "[7]", "result": 10, "unit": "fold"},
      {"measurement": "KD Fold change", "setting": "[8]", "result": 78.4, "unit": "fold"}
    ]},
    {"substance": "Anti-HER2 S239D I332E (antibody)", "values": [
      {"measurement": "CD16a NFAT EC50", "setting": "[1]", "result": 1.5, "unit": "ng/mL"},
      {"measurement": "Kd", "setting": "[3]", "result": 0.1, "unit": "nM"}
    ]},
    {"substance": "Anti-HER2 S239D I332E-mcPEG12(8) (antibody)", "values": [
      {"measurement": "Kd", "setting": "[3]", "result": 1, "unit": "nM"}
    ]},
    {"substance": "Anti-HER2 S239D I332E-mcPEG12(10) (antibody)", "values": [
      {"measurement": "CD16a NFAT EC50", "setting": "[1]", "result": 71.2, "unit": "ng/mL"}
    ]},
    {"substance": "Anti-HER2-mcPEG12(8) (antibody)", "values": [
      {"measurement": "CD16a NFAT EC50", "setting": "[1]", "result": "> 2000", "unit": "ng/mL"},
      {"measurement": "Kd", "setting": "[3]", "result": 9, "unit": "nM"}
    ]},
    {"substance": "obinituzumab-AF (antibody)", "values": [
      {"measurement": "EC50 (read off the curve), FcγRIIIa NFAT reporter assay", "setting": "[9]", "result": 0.7, "unit": "ng/mL"}
    ]},
    {"substance": "obinituzumab-WT (antibody)", "values": [
      {"measurement": "EC50 (read off the curve), FcγRIIIa NFAT reporter assay", "setting": "[9]", "result": 7, "unit": "ng/mL"}
    ]},
    {"substance": "rituximab-AF (antibody)", "values": [
      {"measurement": "EC50 (read off the curve), FcγRIIIa NFAT reporter assay", "setting": "[10]", "result": 1, "unit": "ng/mL"}
    ]},
    {"substance": "rituximab-WT (antibody)", "values": [
      {"measurement": "EC50 (read off the curve), FcγRIIIa NFAT reporter assay", "setting": "[10]", "result": 8, "unit": "ng/mL"}
    ]}
  ]
}
